Substrate: Nc1ncnc2c1ncn2[C@@H]1O[C@H](COP(=O)(O)OP(=O)(O)OP(=O)(O)OP(=O)(O)OC[C@H]2O[C@@H](n3cnc4c(N)ncnc43)[C@H](O)[C@@H]2O)[C@@H](O)[C@H]1O
Test: fluorescent ADP assay, Lineweaver-Burk
Format: biochemical, Streptococcus pyogenes
Details: Mg2+-dependent, heading states optimal conditions (optimum pH 7.0, 45 °C), 0.1 mg/mL enzyme
Description: fluorescent ADP assay, Lineweaver-Burk on Sp-yqeK

B1: Sp-yqeK (Streptococcus pyogenes) (protein)
chain: MTYEDYLPYSRTELLAKIAEQMSPKRFKHVLGVEKAALSLAECYGCNPDKAGLAALLHDYAKECPDQVFLDLIDKYQLSPELAKWNNNVWHGMVGIYKIQEDLGLKDKDILRAIEIHTVGAAEMTLLDKVLYVADYIEEGRIFPLVDDARKIAKLDLNQAVAYETVNTVAYLASKAQPIFPQTLDTYNAFCSYLKEY
notes: pET28b (Nde I/Xho I), E. coli BL21(DE3), Ni-NTA purified; about 23 kDa; dimer in the asymmetric unit
Km: 216.4 ± 21.65 µM

— paper PMC11857287
